# Results taken from patent US20140057332A1, “GLUCO-OLIGOSACCHARIDE OXIDASES FROM ACREMONIUM STRICTUM AND USES THEREOF” (The Governing Council of the University of Toronto, priority 2011, published 2014).
# B1: Acremonium strictum gluco-oligosaccharide oxidase GOOX-VN (type strain CBS 346.70, V38 and N388), SEQ ID NO. 2 (Sarocladium strictum; A38V/S388N) (protein)
# chain: NSINACLAAADVEFHEEDSEGWEMDGTAFNLRVDYDPVAIAIPRSTEDIAAAVQCGLDAGVQISAKGGGHSYGSYGFGGEDGHLMLELDRMYRVSVDDDNVATIQGGARLGYTALELLDQGNRALTHGTCPAVGIGGHVLGGGYGFATHTHGLTLDWLVGATVVLADASIVHVSKTENADLFWALRGGGGGFAIVSEFEFNTFEAPEIITTYQVTTTWNRKQHVAGLKALQDWAENTMPRELSMRLEINANALNWEGNYFGNAKDLKKVLQPIMKKAGGKSTISKLVETDWYGQINTYLYGADLNITYNYDVHEYFYANSLTAPRLSDEAISAFVDYKFDNSSVRPGRGWWIQWDFHGGKNSALASHSNDETAYAHRDQLWLWQFYDNIYDYENNTSPYPESGFEFMQGFVATIEDTLPEDRKGKYFNYADTTLDKEEAQKLYWRGNLEKLQAIKAKYDPEDVFGNVVSVEPIA
# How the values were obtained:
# pH stability of enzyme = format: physicochemical
# Protocol: (§1) Temperature stability was measured by incubating 0.2 μg of enzyme for 1 h at nine different temperatures ranging from 25 to 60° C. (Table 9). While GOOX-VN and the variant GOOX-V were stable at 45° C., both lost more than 70% activity after incubation for 1 h at 50° C. […] The pH stability of GOOX-VN was determined by incubating 0.2 μg of the enzyme for 1 h at pH values from pH 3 to 12. After 1 h of incubation, GOOX-VN retained more than 80% activity at pH 5 to pH 10, 40% activity at pH 4, and less than 10% activity at pH values below 3 or above 11. Finally, the optimum pH for GOOX-VN activity was determined by incubating 0.1 μg of enzyme at 37° C. for up to 5 min with 25 mM cellobiose in 25 mM Britton-Robinson universal buffer solutions at pH 5 to 12. At regular time points, the chromogenic assay mix containing 400 mM potassium phosphate buffer pH 6, 0.1 mM 4-aminoantipyrine, 1 mM phenol, 3 U/ml horseradish peroxidase and 40 mM cellobiose was added to the reaction and was incubated for approximately 5 min at 37° C., until the chromogenic compound was detected.
# [1] = substrate: OC[C@H]1O[C@@H](O[C@H]2[C@H](O)[C@@H](O)C(O)O[C@@H]2CO)[C@H](O)[C@@H](O)[C@@H]1O; test: purified protein, by the assay type; conditions: other: 37° C., pH 8.0
# Protocol: (§2) A chromogenic assay was used to measure hydrogen peroxide production (15). Reactions contained 0.1 mM 4aminoantipyrine (4AA), 1 mM phenol, 0.5 U horseradish peroxidase, 40 mM Tris-HCl (pH 8.0), and different substrates were initiated by adding 0.2 μg of enzymes to the 250 μL reaction mixture. The production of H2O2 was coupled to the oxidation of 4aminoantipyrine by horseradish peroxidase and detected at 500 nm. Reactions were incubated at 37° C. for 15 min to measure the specific activity of GOOX on 10 mM of monosaccharide or 1 mM of oligosaccharide.
# (§3) At least 12 substrate concentrations were included to obtain kinetic parameters for each substrate. Initial rates were obtained by measuring reaction products every 30 s for 15 min at 37° C. and pH 8.0, and kinetic parameters were calculated using the Michaelis-Menten equation (GraphPad Prism5 Software).
# [2] = substrate: OC[C@H]1O[C@@H](O[C@H]2[C@H](O)[C@@H](O)[C@H](O[C@H]3[C@H](O)[C@@H](O)C(O)O[C@@H]3CO)O[C@@H]2CO)[C@H](O)[C@@H](O)[C@@H]1O; test: purified protein, by the assay type; conditions: other: 37° C., pH 8.0
# Protocol: as §2, §3
# [3] = substrate: OC1OC[C@@H](O[C@@H]2OC[C@@H](O[C@@H]3OC[C@@H](O)[C@H](O)[C@H]3O)[C@H](O)[C@H]2O)[C@H](O)[C@H]1O; test: purified protein, by the assay type; conditions: other: 37° C., pH 8.0
# Protocol: as §2, §3
# [4] = substrate: OC[C@H]1OC(O)[C@H](O)[C@@H](O)[C@@H]1O; test: purified protein, by the assay type; conditions: other: 37° C., pH 8.0
# Protocol: as §2, §3
# [5] = substrate: OC[C@H]1O[C@H](O[C@H]2[C@H](O)[C@@H](O)C(O)O[C@@H]2CO)[C@H](O)[C@@H](O)[C@@H]1O; test: purified protein, by the assay type; conditions: other: 37° C., pH 8.0
# Protocol: as §2, §3
# [6] = substrate: OC1OC[C@@H](O[C@@H]2OC[C@@H](O)[C@H](O)[C@H]2O)[C@H](O)[C@H]1O; test: purified protein, by the assay type; conditions: other: 37° C., pH 8.0
# Protocol: as §2, §3
# [7] = Enzyme stability at 37° C. (residual activity on maltose); format: physicochemical; conditions: pre-incubation at 37° C. for 60 min; 10 mM maltose (FIG. 11)
# Protocol: The enzyme stability was evaluated in triplicate by incubating 0.6 μg of each enzyme preparation in 40 mM Tris-HCl buffer (pH 8.0) for 0, 5, 15, 25, 35, and 60 min at 37° C. Residual enzyme activity was measured at 37° C. for 15 min at pH 8.0 using 10 mM maltose and 0.2 μg of protein.
# [8] = Chromogenic H2O2 oxidase assay on xylotetraose; conditions: 1 mM xylotetraose; 37° C., 15 min
# Protocol: as §2
# (§4) An additional eight mutations, identified as Y72F, Y72A, E247A, E314A, W351A, N388S, Q353N, Q384A, were created in GOOX-VN to assess the influence of these residues on the substrate selectivity of GOOX-VN. […] The specific activity of each mutant was then measured at 37° C. for 15 min using 10 mM mono-sugars and 1 mM oligosaccharides as performed for Y300A, Y300N, and W351F (Table 11).
# [9] = Chromogenic H2O2 oxidase assay / kinetic analysis on NAG
# Protocol: as §2, §3
# [10] = Effect of deglycosylation with PNGaseF on enzyme activity; format: biochemical
# Protocol: Approximately 2 μg of purified enzyme was treated with PNGaseF (New England Biolabs) using denaturing and native conditions. Samples that were deglycosylated using denaturing conditions were analysed by SDS PAGE, while samples deglycosylated using native conditions were used to evaluate the impact of glycosylation on enzyme activity. The activity of enzymes was measured on 10 mM maltose at 37° C. for 15 min. (Table 7). N-glycosylation was predicted by NetNGlyc (http://www.cbs.dtu.dk/services/NetNGlyc/) while O-glycosylation was predicted by OGPET (http://ogpet.utep.edu/OGPET/).
# [11] = Chromogenic H2O2 oxidase assay on xylohexaose; conditions: 1 mM xylohexaose; 37° C., 15 min
# Protocol: as §2, §4
# [12] = Chromogenic H2O2 oxidase assay / kinetic analysis on glucose
# Protocol: as §2, §3
# [13] = Temperature stability (residual activity on cellobiose); format: physicochemical; conditions: for Residual activity after 1 h: assay 1 mM cellobiose, 37° C., pH 8
# Protocol: as §1
# [14] = Chromogenic H2O2 oxidase assay / kinetic analysis on xylotriose
# [15] = Chromogenic H2O2 oxidase assay / kinetic analysis on galactose
# Protocol: as §2, §3
# [16] = 1 mM xylotriose, 37° C., 15 min
# [17] = 10 mM galactose, 37° C., 15 min
molecule,measurement,setting,value
B1,activity retained after 1 h of incubation,pH stability of enzyme; pH 4,40%
same,activity retained after 1 h of incubation,pH stability of enzyme; pH 5 to pH 10,more than 80%
same,activity retained after 1 h of incubation,pH stability of enzyme; pH values below 3 or above 11,less than 10%
same,Km,[1],70 ± 10 µM
same,kcat,[1],6.25 ± 0.178 s⁻¹
same,kcat/Km,[1],95500 ± 13900 M⁻¹ s⁻¹
same,Km,[2],90 ± 10 µM
same,kcat,[2],6.02 ± 0.192 s⁻¹
same,kcat/Km,[2],70600 ± 8150 M⁻¹ s⁻¹
same,Km,[3],100 ± 10 µM
same,kcat,[3],8.31 ± 0.123 s⁻¹
same,kcat/Km,[3],84300 ± 8530 M⁻¹ s⁻¹
same,Km,[4],17360 ± 700 µM
same,Km,[5],2810 ± 160 µM
same,Km,[6],100 ± 0 µM
same,kcat,[6],8.813 ± 0.085 s⁻¹
same,kcat/Km,[6],89800 ± 867 M⁻¹ s⁻¹
same,activity following pre-incubation,[7],remained active
same,Specific Activity of Enzyme Variants,[8],10.2 µmol/min/mg
same,Specific Activity of Enzyme Variants,"[9]; 10 mM NAG, 37° C., 15 min",0.2 µmol/min/mg
same,Specific activity Defined substrate concentration,"[9]; 10 mM NAG, 37° C., 15 min",0.25 µmol/mg/min
same,oxidation of NAG,[9]; after 3 min using 10 mM sugar,detected
same,Specific activity From Vmax,[9]; substrate NAG,8.00 µmol/mg/min
same,"Activity, Deglycosylated","[10]; deglycosylated with PNGaseF (native conditions), 10 mM maltose, 15 min at 37° C., duplicate",3.43 nmol/min
same,loss in enzyme activity on deglycosylation,[10]; deglycosylation under native conditions,did not cause a detectable loss in enzyme activity
same,"Activity, Glycosylated","[10]; glycosylated enzyme, 10 mM maltose, 15 min at 37° C., duplicate",3.51 nmol/min
same,Specific Activity of Enzyme Variants,[11],11.0 µmol/min/mg
same,Specific Activity of Enzyme Variants,"[12]; 10 mM glucose, 37° C., 15 min",2.6 µmol/min/mg
same,Specific activity Defined substrate concentration,"[12]; 10 mM glucose, 37° C., 15 min",2.62 µmol/mg/min
same,Specific activity From Vmax,[12]; substrate glucose,7.41 µmol/mg/min
same,stability at 45° C.,[13]; 1 h at 45° C.,stable
same,Residual activity after 1 h,[13]; incubation at 25° C.,100%
same,Residual activity after 1 h,[13]; incubation at 30° C.,95%
same,Residual activity after 1 h,[13]; incubation at 35° C.,100%
same,Residual activity after 1 h,[13]; incubation at 40° C.,100%
same,Residual activity after 1 h,[13]; incubation at 45° C.,64%
same,Residual activity after 1 h,[13]; incubation at 50° C.,7%
same,Residual activity after 1 h,[13]; incubation at 55° C.,<5%
same,Residual activity after 1 h,[13]; incubation at 60° C.,<5%
same,Specific Activity of Enzyme Variants,[14]; [16],7.5 µmol/min/mg
same,Specific activity Defined substrate concentration,[14]; [16],7.48 µmol/mg/min
same,Specific activity From Vmax,[14]; substrate xylotriose,8.23 µmol/mg/min
same,Specific Activity of Enzyme Variants,[15]; [17],0.5 µmol/min/mg
same,Specific activity Defined substrate concentration,[15]; [17],0.52 µmol/mg/min
same,oxidation of galactose,[15]; after 3 min using 10 mM sugar,detected
same,Specific activity From Vmax,[15]; substrate galactose,7.08 µmol/mg/min
